Values joined by “and” are separate entries in the source; they are usually repeats but may differ in a detail not shown here. Equal values may be shown once.

The target of data set [1] is recombinant TC-2Δ11 deletion mutant (rTC-2Δ11) (Trichomonas vaginalis) (UniProt A2FXT2). In words: SEC; analytical SEC, Superdex 200 pg HiLoad 26/600, 5 mg protein loaded, 50 mM Tris-HCl pH 8.0, 100 mM NaCl, 0.02% NaN3, room temperature (23-25°C); samples stored 1 month at 4°C.
For data set [2] the target is unchanged. In words: SEC; analytical SEC, Superdex 200 pg HiLoad 26/600, 5 mg protein loaded, 50 mM Tris-HCl pH 8.0, 100 mM NaCl, 0.02% NaN3, room temperature (23-25°C); samples stored 3 months at 4°C.
Data set [3] addresses A2FXT2. Kind of data set: SEC; analytical SEC, Superdex 200 pg HiLoad 26/600, 5 mg protein loaded, 50 mM Tris-HCl pH 8.0, 100 mM NaCl, 0.02% NaN3, room temperature (23-25°C); samples stored 1 month at 4°C.
Data set [4] deals with the molecule itself. The data set is described as above.
Data set [5] concerns the molecule itself. Kind of data set: SEC; analytical SEC, Superdex 200 pg HiLoad 26/600, 5 mg protein loaded, 50 mM Tris-HCl pH 8.0, 100 mM NaCl, 0.02% NaN3, room temperature (23-25°C); samples stored 3 months at 4°C.

As for “recombinant TC-2Δ11 deletion mutant (rTC-2Δ11) (from UniProt A2FXT2 12-91) (domain or fragment)”, the Area (%) of the dimer peak in data set [1] was determined as 19.5%; in data set [2], 25.8%. For the same molecule, the stoichiometry N in data set [1] and in data set [2] was 2 each time.

B1: recombinant wild-type trichocystatin-2 (rTC-2) (natural protein)
chain: MSCGGGCCCGAAKPANVQDEHVIQAFKDAIALGNQKNGTTLEYIQLLSATQKVVSGYIFEGVVKTNDGDYKVKIWCKPGNTEKELQLFEKA
notes: trichocystatin-2 (TC-2), Trichomonas vaginalis, TrichDB TVAG_272260; 10-kDa cystatin of the stefin type; the TC-2 gene cloned in pCold I as in Puente-Rivera et al., 2014; No tag removal is described; Mixture of monomer, dimer and higher forms in SEC
B1: in data set [3], the Area (%) of the peak of high molecular weight aggregates worked out at 2.2%. The “stoichiometry N” value in data set [4] was 2; in data set [5] it was 2 and 4.

These data come from publication PMC11959277, “Trichocystatin-2 from Trichomonas vaginalis: role of N-terminal cysteines in aggregation, protease inhibition, and trichomonal cysteine protease-dependent cytotoxicity on HeLa cells” (Frontiers in Parasitology, 2025).
